Test [1] deals with T1, human FcRn (FCGRT/B2M Heterodimer) (human, UniProt P55899 24-297; P61769 21-119).
T1 construct: bought heterodimer, His-tagged
The test is described as follows: AlphaScreen competition: unlabeled competitor antibody against biotinylated B21M WT IgG1 for His-tagged human FcRn; 1x PBS, 0.05% BSA, 0.01% Tween-20, pH 6.0.

Test [2] has as its target T2, human ROR1 (Receptor Tyrosine Kinase-Like Orphan Receptor 1) on cells (human, UniProt Q01973 30-937).
T2 construct: whole, on cells; endogenous on SKMES-1, MDA-MB231, H358, HCC827 and MCL lines, or on HEK293 cells transfected with human ROR1 (pDR25226); the cell line is named under assay; also called cell-surface ROR1; hu ROR1
The test is described as follows: MSD-CAT; 200, 40 or 8 pM antibody equilibrated with serially diluted HEK293 cells overexpressing human ROR1.

Test [3] addresses T2, human ROR1 (Receptor Tyrosine …). The test is described as follows: MSD-CAT; 1000 pM antibody equilibrated with serially diluted HEK293 cells overexpressing human ROR1.
Test [4] shares this target. The test is described as follows: MSD-CAT, cells expressing ROR1.
The next test has as its target T3, human FcγRIIa (CD32a) (human, UniProt P12318 36-218).
T3 construct: bought, His-tagged, on Ni2+ Acceptor beads
T3 sequence (looked up): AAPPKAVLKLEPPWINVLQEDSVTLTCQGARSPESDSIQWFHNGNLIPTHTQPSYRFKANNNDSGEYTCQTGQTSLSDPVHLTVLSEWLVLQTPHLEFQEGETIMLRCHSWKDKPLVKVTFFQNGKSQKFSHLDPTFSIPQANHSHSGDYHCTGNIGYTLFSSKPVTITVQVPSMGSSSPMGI
The test is described as follows: AlphaScreen competition: unlabeled competitor antibody against biotinylated B21M WT IgG1 for His-tagged human FcγRIIa; 1x PBS, 0.05% BSA, 0.01% Tween-20, pH 7.2.

The next test has as its target T4, human FcγRIIb (human, UniProt P31994 46-217).
T4 construct: bought, His-tagged, on Ni2+ Acceptor beads; also called FcγRIIb/c (CD32b/c)
T4 sequence (looked up): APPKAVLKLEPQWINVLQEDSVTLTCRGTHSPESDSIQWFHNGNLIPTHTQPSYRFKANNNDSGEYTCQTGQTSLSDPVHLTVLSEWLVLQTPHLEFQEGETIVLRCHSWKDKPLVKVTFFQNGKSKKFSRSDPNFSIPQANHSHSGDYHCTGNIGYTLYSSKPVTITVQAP
The test is described as follows: competition AlphaScreen.

A further test concerns the target T5, human FcγRI (CD64) (human, UniProt P12314 16-288).
T5 construct: bought, His-tagged, on Ni2+ Acceptor beads; also called FcγR1
The test is described as follows: competition AlphaScreen.

For another test, the target named is T6, human FcγRIIIa (CD16a) (human, UniProt P08637 17-208).
T6 construct: bought, His-tagged, on Ni2+ Acceptor beads
The test is described as follows: competition AlphaScreen.

The target in test [5] is T7, human ROR1 (Receptor Tyrosine Kinase-Like Orphan Receptor 1) on cells (human, UniProt Q01973 30-937).
T7 construct: whole, on cells; also called hu ROR1
The test is described as follows: MSD-CAT, HEK293 cells expressing human ROR1; apparent KD (bivalent, avidity).

The target in test [6] is T2, human ROR1 (Receptor Tyrosine …). The test is described as follows: cell binding, ROR1 expressing H358 cells.
The target in test [7] is T8, ROR1 extracellular domain c-Mer proto-oncogene tyrosine kinase transmembrane domain (ROR1 ECD MERTK tm) (Homo sapiens (Human), UniProt Q01973 30-405).
T8 construct: also called RR1W1; ROR1-Transfected CHO
The test is described as follows: cell binding, ROR1 transiently transfected HEK293F cells.

In test [8] the target is ROR1 ECD MERTK tm (RR1W1) on transfected HEK293F cells (Homo sapiens (Human), UniProt Q01973 30-405). The test is described as follows: cell binding, ROR1 transfected 293F cells.
Test [9] has as its target T7, human ROR1 (Receptor Tyrosine …). The test is described as follows: cell binding, H358 cells.

B1: RCDB5 (bispecific antibody, human IgG4 S228P, kappa, lambda, F234A L235A)
heavy 1: not shown
light 1: not shown
heavy 2: EVQLVESGGGLVQPGGSLRLSCAASGFTFNTYAMNWVRQAPGKGLEWVARIRSKYNNYATYYAASVKGRFTISRDDSKNSLYLQMNSLKTEDTAVYYCARHGNFGNSYVSWFAYWGQGTLVTVSSASTKGPSVFPLAPCSRSTSESTAALGCLVKDYFPEPVTVSWNSGALTSGVHTFPAVLQSSGLYSLSSVVTVPSSSLGTKTYTCNVDHKPSNTKVDKRVESKYGPPCPPCPAPEAAGGPSVFLFPPKPKDTLMISRTPEVTCVVVDVSQEDPEVQFNWYVDGVEVHNAKTKPREEQFNSTYRVVSVLTVLHQDWLNGKEYKCKVSNKGLPSSIEKTISKAKGQPREPQVYTLPPSQEEMTKNQVSLTCLVKGFYPSDIAVEWESNGQPENNYKTTPPVLDSDGSFLLYSKLTVDKSRWQEGNVFSCSVMHEALHNHYTQKSLSLSLGK
light 2: QTVVTQEPSLTVSPGGTVTLTCRSSTGAVTTSNYANWVQQKPGQAPRGLIGGTNKRAPGTPARFSGSLLGGKAALTLSGVQPEDEAEYYCALWYSNLWVFGGGTKLTVLGQPKAAPSVTLFPPSSEELQANKATLVCLISDFYPGAVTVAWKADSSPVKAGVETTTPSKQSNNKYAASSYLSLTPEQWKSHRSYSCQVTHEGSTVEKTVAPTECS
notes: also called ROR1×CD3 bispecific antibody
As for B1, the binding result (in test [1]; in the test with human FcγRIIa (CD32a); with human FcγRIIb; with human FcγRI (CD64); with human FcγRIIIa (CD16a)) was “binds” throughout. Further, the “IC50 (read off the curve)” value is ~0.4 nM in test [2] and ~1 nM in test [3]. For the same molecule, the Kd in test [4] was ~0.3 nM.

B2: RR1B67 (antibody, human IgG4 S228P, kappa, F234A L235A, V domains shown)
VH: QVQLVQSGAEVKKPGSSVKVSCKASGGTFSTYAIHWVRQAPGQGLEWMGRIIPIEGRAYYAQKFQGRVTITADESTSTAYMELSSLRSEDTAVYYCARGRYSYRYWFDYWGQGTLVTVSS
VL: EIVLTQSPATLSLSPGERATLSCRASQSVSSYLAWYQQKPGQAPRLLIYDASNRATGIPARFSGSGSGTDFTLTISSLEPEDFAVYYCQQRSNWPLTFGQGTKVEIKR
notes: huIgG4 PAA, kappa; also called RRIB67
Consider B2, for which, in [5], the Kd is 0.055 nM.

B3: CD3B219 (antibody, human IgG4 S228P, lambda, F234A L235A, V domains shown)
VH: EVQLVESGGGLVQPGGSLRLSCAASGFTFNTYAMNWVRQAPGKGLEWVARIRSKYNNYATYYAASVKGRFTISRDDSKNSLYLQMNSLKTEDTAVYYCARHGNFGNSYVSWFAYWGQGTLVTVSS
VL: QTVVTQEPSLTVSPGGTVTLTCRSSTGAVTTSNYANWVQQKPGQAPRGLIGGTNKRAPGTPARFSGSLLGGKAALTLSGVQPEDEAEYYCALWYSNLWVFGGGTKLTVLG
notes: IgG4 PAA anti-CD3 parental antibody; also called anti-CD3 antibody CD3B219; anti-CD3 antibodies
For the molecule B3, the binding result in [6] and in test [7] was “no binding” throughout.

B4: CD3B219 (antibody, human IgG4 S228P, lambda, F234A L235A, V domains shown)
VH: EVQLVESGGGLVQPGGSLRLSCAASGFTFNTYAMNWVRQAPGKGLEWVARIRSKYNNYATYYAASVKGRFTISRDDSKNSLYLQMNSLKTEDTAVYYCARHGNFGNSYVSWFAYWGQGTLVTVSS
VL: QTVVTQEPSLTVSPGGTVTLTCRSSTGAVTTSNYANWVQQKPGQAPRGLIGGTNKRAPGTPARFSGSLLGGKAALTLSGVQPEDEAEYYCALWYSNLWVFGGGTKLTVLG
notes: parental anti-CD3 mAb; also called anti-CD3 antibody; Anti-CD3
Take B4: the binding result in test [8] and in [9] was “no binding” throughout.

The values are drawn from patent US20170210799A1 (Janssen / Centocor, published 2017).
